This is an account of results in the nanobody polyreactivity screen of Harvey et al. (2022).

A short description of the series: yeast display, Sf9 membrane polyspecificity reagent, FACS + sequencing; frameworks hold sequencing errors. In outline: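 In a synthetic yeast display library (Saccharomyces cerevisiae BJ5465), nanobody expression was induced with galactose for 36–48 hours. FACS gates were set low and high (top ~1%) using anti-HA fluorescence for expression and streptavidin fluorescence for binding of the Sf9 membrane reagent. Each polyreactivity label is drawn from the gate of origin.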
Take “QVQLVESGGGLVQAGGSLRLSCAASGRTLGVNAMGWYRQAPGKERELVAAISTRGTTTNYADSVKGRFTISRDNAKNTVYLQMNSLKPEDTAVYYCAVRSRTPRAYYYWGQGTQVTVSS”: the “polyreactivity (PSR sort gate)” value is “low polyreactivity”.
Next, “QVQLVESWGGLVQAGGSLRLSCAASGSTLGNNGMGWYRQAPGKERELVAAIDSTVTTNYADSVKGRFTISRDNAKKSVYLHMNSLKPEDTAVYYCAADYWGQGTQVTVSS”: “low polyreactivity”; “QVQLVESGGGLVQAGGSLRLSCAASGSIFRYYTMGWYRQEPGKERELVAAISCNGGRTYYADSVKGRFTISCDNAKNTVYLQMNSLKPEDTAVYYCNAVYILTETWYDYWGQGTQVTVSS”: “high polyreactivity”; “QVQLVESGGGLVQAGGSLRLSCAASGITFYHYAMGWYRQAPGKERELVAAISSDDNTNYADSVKGRFTISRDNAKNTVYLQMNSLKPEDTAVYYCAAAPWYFYDQYFNAISFGYYYWGQGTQVTVSS”: “high polyreactivity”.
Turning to “QVQLVESGGGLVQAGGSLRLRCAASGSIFYRNAMGWNRQAPGKERELVSANTRTGGSTYYADSVQARFTISRDNAKNTVYLQMNSLKPEDTAVYYCPAETWYRWPRSAWRFDYWGQGTQVNVSS”, the “polyreactivity (PSR sort gate)” value is on record as “high polyreactivity”.
Under “QVQLVESGGGLVQAGGSLRLSCAASGRTFPYNAMGWYRQAPGKERELVAAISSGGSTNYADSVKGRFTITRDNAKKTVYLQRNSLKPEDTAVYYCAVTGWPRYTWYSYGYWGQGTQVTVSS” stands “low polyreactivity”; under “QVQLVESGGGLVQAGGSLRLSCAASGISDWYAMGWSRQAPGKERELVASITDGGSTKYADSVKGRFTISRDNAKNTVYLQMNSLKPEDTAVYYCNNTFRVYFSRSWWSRYYYWGQGTQVTVSS”, “low polyreactivity”.
“QVQLVESGGGLVQAGGSLRLSCAASGIIFGYYAMGWYRQAPGKERELVAAISRRGGSTYYADSVKGRFTISRDNAKNTVYLQMNSLKPEDTAVYYCNKRRAAGGFPYDYWGQGTQVTVSS”: the “polyreactivity (PSR sort gate)” value is given as “high polyreactivity”.
Regarding “QVQLVESGGGLVQAGGSLRLSSAASGSTFYRYAMGWYRQAPGKERELVAAISRSGGNTFYADSVKGRFTISRDNAKNTVYLQMNSLKPEDTAVYYCAALRSWYGQTSGMDYWGQGTQVTVSS”, the “polyreactivity (PSR sort gate)” value is listed as “high polyreactivity”.
Under “QVQLVESGGGLVQAGGSLRLSCAASGITFARYAMGWYRQAPGKARELVAAISRSGGSTYYADSVKGRFTSSRDNAKNTVYLQMNSLKPEDSAVYYCAAGGRVRRNKFDDWGQGTQVTVAS” stands “high polyreactivity”; under “QVQLVESGGGLVQAGGSLRLSCAASGRIFWSNAMGWYRQAPGKERELVATISSGGRTYYADSVKGRFTISRDNAKNTVYLQMNSLKPEDTAVYYCNATSGYKHAWRSENGYWGQGTQVTVSS”, “low polyreactivity”.
“QVQLVESGGGLVQAGGSLRLSCAASGSIFSSNAMGWYRQAPGSTNYADSVKGRFTISRDNAKNTVYLQMNSLKPEDTAVYYCAKDYVLFQYVDFQDDDYWGQGTQVTVSS”: the “polyreactivity (PSR sort gate)” value is on record as “low polyreactivity”.
For “QVQVVESGGGLVQAGGSLRLSCAASGRIFPLYAMGWSRQAPGTERELVAAISSGGTTYYADSVKGRFTFSRDNAKNTVYLQMNSLKPEDTAVYYCARRPAQRWGRFDYWGQGTQVTVSS”, the “polyreactivity (PSR sort gate)” value is given as “low polyreactivity”.
Under “QVQLVESGGGLVQAGGSLRLSCAASGFTFDENAMGWYRQAPGINYSGASTYYAVSVKGRFTIARDNAKNTVYLQMNSLKPEDTAVYYCAAEVLAQMNYWGQGTQVTVSS” stands “low polyreactivity”; under “QVQLVESGGGLVQAGGSLRLSCAASGSTLDSNAMGWYRQAPGKERELVAGIDWSGGSTYADSVKGRFTISRDNAKNTVYLQMNSLKPEDTAVYYCAKVSRYVQPYSRFDYWGQGTQVTVSS”, “low polyreactivity”.
For “QVQLVESGGGLVQAGGSLRLTWEAYGFTFKYYPMGWYRQAPGKEWELVADITRSGGSTYYADSVKGRFTISRDNAKITVYLEMYILKPEDTAVYYCAVDPVRYQYSYDYWCQGTQVTVSS”, the “polyreactivity (PSR sort gate)” value is “high polyreactivity”.
Take “QVQLVESGGGLVQAGGILRLSCAASGRTFFVYAMGWYRPAPGTEWEGVAAISNTGGRTYYADSVKGRFTISRDYAKNTVYFQMNSLKPEDTAVYYCAAPYSGPYRSYEYYWGQGTHVTVSS”: the “polyreactivity (PSR sort gate)” value was “low polyreactivity”.
Under “HVNLVESGGGLVKAGGSLRLTCDASGITFYEYAMGRYRRAPGKELELVAGIRLSGSTTYYADSVKGRFTISRDNSKNTVYLQMHSLKPEDTAVYYCNVDYYSGLYDYDSWGQGTQVTVSS” stands “low polyreactivity”; under “QVQLVETGGGLVQAGGSLRLSCAASGSIQWNAMGWYRQAPGKERELVAVINTGGSTYADSVKGRFTISRDNAKNTVYLQMNMLKPEDTAVFYCAARVPFTLLKGKQYGYWGQGTQVTVSS”, “low polyreactivity”.
As to “QVQLVESGGGLVQAGGSLRLSCAASGRTFYINAMGWYRQAPRKERELVAAITSVGSTNYADSVKGRFTISRDNAKNNVYIQMNSLKPEDTAVYYCAAESTEGTSGDYDYWGQGTQVTVSS”, the “polyreactivity (PSR sort gate)” value was “low polyreactivity”.
Under “QVQLVESGGGLVQAGGSLRLSCAASGIIFRGYVMGWYRQAPGKERELVAAISTSGGRTSYADSVKGRFTISRDNAKNTVYLQMNSLKPEDTAVYYCAADSGYRYYTKSVGYDYWGQGTQVTVSS” stands “high polyreactivity”; under “QVQLVESGGGLVQAGGSLRLSCAASGSTSTTYAMGWYRQAPWKERELVAAISWGGTRTYYADSVKGRFTISRDNAKNTVYLQMNSLKPEDTAVYYCNAGRRSSSGHYGYNYWGQGTQVTVSS”, “high polyreactivity”; under “QVQLVESGGGIVQAGGSLRLSCAASGFTFNRNAMVWYRQAPGKERELVAAISWSGGSTYYADSVKGRFTISRYNAKNTVYLQMNSLKPEDTAVYYCAKGYRRVYGPFYYWGQGTQVTVSS”, “low polyreactivity”.
Next, “QVQLQESGGGLVQAGGSRRLSCAASGSISNLIAKCWYRQAQGKEREFVAAIGPGANTNYADSVKGRFTISRDNAKNPVYLQMNSRTPEDTAVYYCAVDYYGEAVYHYWGQGTQVTVSS”: “high polyreactivity”.
In the case of “QVQLVESGGGLVQAGGSLRLSCAASGRIIYTNAMGWYRQAPGKERELVAAINRSGGITYYADSVKGRFTISRDNAKNTVYVQMNSLKPEDTAVYYCAKDSSWASYNHDYWGQGTQVTVSS”, the “polyreactivity (PSR sort gate)” value is reported as “low polyreactivity”.
Regarding “QVQLVESGGRLVQAGGSLRLSCAPSGRTLGRYTMGWYRQAPGKERELVAGISSGGSTNYADSVKGRFTISRDNAKNTVYLQMNSLKPEDTAVYYCNSRGYSYGARYYYWGQGTQVTLSS”, the “polyreactivity (PSR sort gate)” value is “high polyreactivity”.
Consider “QVQLVESGGGLVQAGVSLRISCAASASILVTNAMGWYRHAPGKERELVAAITSIGGSTNYADSVKGRFTISRDNAKNTVYLQMNSLKPEDTAVYYCAAGIYPTVFWVYYWGQGTQVTVSS”, for which the “polyreactivity (PSR sort gate)” value is given as “low polyreactivity”.
Next, “QVQLVESGGGLVQAGGSLRLSCAASGSTFYINAMGWSRQAPGKEREFVAAIDWGGGTTYYADSVKGRFTISRDNAMNTVYLQMNRLKPEDTAVYYCAAERNYWSTQYYYWGQGTQVTVSS”: “high polyreactivity”; “QVQLVESGGGLVQAGGSLRLSCAASGTIFQSNAMGWYRQAPGKERELVAAISSSGGRTYYADSVKGRFTISRDNAKNTVYLQMNSLKPEDTAVYYCADLGYPDGGWGQGTQVTVSS”: “low polyreactivity”; “QVHLVESGGGLVQAGGSLRLSCAASGSIFSSYAMGWYRQATGKERELVASISSGGSTNYADSVKGRFTISRDNAKNTVYLQMNSLKPEDTAVYYCNVDLYNWRGDSTGYDYWGQGTQVTVSS”: “low polyreactivity”.
